Literature values as cited in patent publication US20200069786A1, “COMPOSITION AND PROCESS FOR PREPARING VACCINE” (TREOS BIO ZRT., priority 2018, published 2020).
Read-outs that look alike come from different tables or passages of the source.

B1: MAGE-A2 (protein, UniProt P43356 1-314, looked up)
Melanoma-associated antigen 2: MPLEQRSQHCKPEEGLEARGEALGLVGAQAPATEEQQTASSSSTLVEVTLGEVPAADSPSPPHSPQGASSFSTTINYTLWRQSDEGSSNQEEEGPRMFPDLESEFQAAISRKMVELVHFLLLKYRAREPVTKAEMLESVLRNCQDFFPVIFSKASEYLQLVFGIEVVEVVPISHLYILVTCLGLSYDGLLGDNQVMPKTGLLIIVLAIIAIEGDCAPEEKIWEELSMLEVFEGREDSVFAHPRKLLMQDLVQENYLEYRQVPGSDPACYEFLWGPRALIETSYVKVLHHTLKIGGEPHISYPPLHERALREGEE
B2: MORC1 (protein, UniProt Q86VD1 1-984, looked up)
MORC family CW-type zinc …: MDDRYPALQRAQLRLDFIHANSTTHSFLFGALAELLDNARDAGAERLDVFSVDNEKLQGGFMLCFLDDGCGMSPEEASDIIYFGRSKKRLSTLKFIGQYGNGLKSGSMRIGKDFILFTKKEETMTCVFFSQTFCEEESLSEVVVPMPSWLIRTRESVTDDPQKFAMELSIIYKYSPFKTEAELMQQFDVIYGKCGTLLVIYNLKLLLNGEPELDVKTDKEDILMAGALEDFPARWSFRAYTSVLYFNPWMRIFIQAKRVKTKHLCYCLYRPRKYLYVTSSFKGAFKDEVKKAEEAVKIAESILKEAQIKVNQCDRTSLSSAKDVLQRALEDVEAKQKNLKEKQRELKTARTLSLFYGVNVENRSQAGMFIYSNNRLIKMHEKVGSQLKLKSLLGAGVVGIVNIPLEVMEPSHNKQEFLNVQEYNHLLKVMGQYLVQYCKDTGINNRNLTLFCNEFGYQNDIDVEKPLNSFQYQRRQAMGIPFIIQCDLCLKWRVLPSSTNYQEKEFFDIWICANNPNRLENSCHQVECLPSIPLGTMSTISPSKNEKEKQLRESVIKYQNRLAEQQPQPQFIPVDEITVTSTCLTSAHKENTKTQKIRLLGDDLKHESLSSFELSASRRGQKRNIEETDSDVEYISETKIMKKSMEEKMNSQQQRIPVALPENVKLAERSQRSQIANITTVWRAQPTEGCLKNAQAASWEMKRKQSLNFVEECKVLTEDENTSDSDIILVSDKSNTDVSLKQEKKEIPLLNQEKQELCNDVLAMKRSSSLPSWKSLLNVPMEDVNLSSGHIARVSVSGSCKVASSPASSQSTPVKETVRKLKSKLREILLYFFPEHQLPSELEEPALSCELEQCPEQMNKKLKMCFNQIQNTYMVQYEKKIKRKLQSIIYDSNTRGIHNEISLGQCENKRKISEDKLKNLRIKLALLLQKLQLGGPEGDLEQTDTYLEALLKEDNLLFQNNLNKVTIDARHRLPLEKNEKTSEN
B3: CRISP2 (protein, UniProt P16562 22-243, looked up)
Cysteine-rich secretory …: KDPAFTALLTTQLQVQREIVNKHNELRKAVSPPASNMLKMEWSREVTTNAQRWANKCTLQHSDPEDRKTSTRCGENLYMSSDPTSWSSAIQSWYDEILDFVYGVGPKSPNAVVGHYTQLVWYSTYQVGCGIAYCPNQDSLKYYYVCQYCPAGNNMNRKNTPYQQGTPCAGCPDDCDKGLCTNSCQYQDLLSNCDSLKNTAGCEHELLKEKCKATCLCENKIY

Test system: TSA
[1] = TSA expression rate in HEAD and NECK
[2] = TSA expression rate in MELANOMA
[3] = TSA expression rate in PROSTATE cancer
[4] = TSA expression rate in Cervical cancer

| Molecule | TSA Expression Rate (ER) (BRAIN) [%] | TSA Expression Rate (ER) (HCC) [%] | TSA Expression Rate (ER) (LUNG) [%] | TSA Expression Rate (ER) (OVARIAN) [%] | TSA Expression Rate (ER) (THYROID) [%] | Expression Rate (ER) % (TSA expression rate in BLADDER cancer) [%] | Expression Rate (ER) % (TSA expression rate in CRC) [%] | Expression Rate (ER) % (TSA expression rate in Esophageal) [%] | Expression Rate (ER) % (TSA expression rate in GASTRIC cancer) [%] | Expression Rate (ER) % [1] [%] | Expression Rate (ER) % (TSA expression rate in Kidney) [%] | Expression Rate (ER) % (TSA expression rate in LEUKEMIAS) [%] | Expression Rate (ER) % [2] [%] | Expression Rate (ER) % (TSA expression rate in PEDIATRIC) [%] | Expression Rate (ER) % [3] [%] | TSA Expression Rate (ER) (BREAST) [%] | Expression Rate (ER) % [4] [%] | Expression Rate (ER) % (TSA expression rate in LUNG cancer) [%] |
| --- | --- | --- | --- | --- | --- | --- | --- | --- | --- | --- | --- | --- | --- | --- | --- | --- | --- | --- |
| B1 | 28 | 25 | 40 | 7 | 9 | 25 | 18 | 53 | 31 | 38 | 7 | 11 | 62 | 60 | 18 | – | – | – |
| B2 | – | – | – | 14 | 0 | – | 0 | – | – | – | 0 | – | 19 | – | 0 | 0 | 0 | 18 |
| B3 | – | – | 29 | 14 | 0 | – | 0 | – | – | 11 | 14 | – | 6 | – | 38 | 15 | 17 | – |
